The record followed here is patent US20210246206A1 (Stanford University, published 2021).

The experiment addresses T1, purified human CD47-Fc fusion protein (human, UniProt Q08722 19-139, limits assumed).
T1 construct: Coated on ELISA plates at 1.0 ug/ml; also called soluble CD47; human CD47 soluble protein; not shown: Fc part
Put plainly: ELISA on coated human CD47 soluble protein (FIG. 11). In general terms: An ELISA detects its analyte on a solid surface through an enzyme-linked reagent.

T1 sequence (Q08722 19-139 limits assumed): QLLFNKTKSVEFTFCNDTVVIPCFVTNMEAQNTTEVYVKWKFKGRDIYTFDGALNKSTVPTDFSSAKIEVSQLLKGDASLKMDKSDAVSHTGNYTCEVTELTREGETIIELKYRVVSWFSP

B1: chimeric 8B6 antibody (antibody, V domains shown)
VH: EVQLQQSGPELVKPGASVKMSCKASGYTFTTYVVHWVKQTPGQGLEWIGYINPYNDGTKYNEKFKGKATLTSDKSSSTAYMEFSSLTSEDSAVYYCVRGYYRYGYTMDYWGQGTSVTVSS
VL: DIVMTQSPATLSVTPGDRVSLSCRASQNFSDYLHWYQQKSHESPRLLIKYVSHSISGIPSRFSGSGSGSDFTLSINSVEPEDVGVYYCQNGHSFPPTFGGGTKLEIK
notes: Mouse 8B6 variable regions in a chimeric native IgG; detection was with anti-human kappa
Turning to B1, the binding result is recorded as “binds”.

B2: chimeric 5F9 antibody (antibody, V domains shown)
VH: QVQLQQPGAELVKPGASVMMSCKASGYTFTNYNMHWVKQTPGQGLEWIGTIYPGNDDTSYNQKFKDKATLTADKSSSAAYMQLSSLTSEDSAVYYCARGGYRAMDYWGQGTSVTVSS
VL: DVLMTQTPLSLPVSLGDQASISCRSSQSIVYSNGNTYLGWYLQKPGQSPKLLIYKVSNRFSGVPDRFSGSGSGTDFTLKISRVEAEDLGVYHCFQGSHVPYTFGGGTKVEIK
notes: Mouse 5F9 variable regions in a chimeric native IgG; detection was with anti-human kappa
Regarding B2, the binding result is recorded as “binds”.
